# Measured values: PMC7353009, “Identification of Substrates of Cytoplasmic Peptidyl-Prolyl Cis/Trans Isomerases and Their Collective Essentiality in Escherichia Coli” (International Journal of Molecular Sciences, 2020)
# Positions count from the first letter of the chain named. Values joined by “and” are separate entries in the source; they are usually repeats but may differ in a detail not shown here. Equal entries are not always repeated.
# T1: Hexa-His-tagged PpiC M57A (E. coli)
# T1 chain: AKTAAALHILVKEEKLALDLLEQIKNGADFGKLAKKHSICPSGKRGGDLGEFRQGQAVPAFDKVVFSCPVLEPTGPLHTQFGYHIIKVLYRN
# T2: Hexa-His-tagged FkpB (wild type) (E. coli, UniProt P0AEM0 1-149)
# T2 chain: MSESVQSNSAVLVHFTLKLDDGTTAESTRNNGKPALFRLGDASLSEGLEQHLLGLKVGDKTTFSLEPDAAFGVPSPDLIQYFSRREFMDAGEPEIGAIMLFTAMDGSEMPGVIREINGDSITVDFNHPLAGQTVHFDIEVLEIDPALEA
# T3: Hexa-His-tagged PpiC F81A (E. coli)
# T3 chain: T1 chain with A57M, F81A
# B1: AhpC-derived peptide (peptide)
# peptide: RATFVVDPQGI
# notes: peptide from AhpC (alkyl hydroperoxide reductase subunit C), E. coli; also called AhpC peptide
# B2: RpoE peptide P2 (peptide)
# peptide: KVASLVSRYVPSGDV
# notes: peptide derived from conserved region 2 of RpoE, E. coli
# B3: RpoE peptide P4 (peptide)
# peptide: AAIMDCPVGTVRSRI
# notes: peptide derived from conserved region 4 of RpoE, E. coli
# B4: RpoE peptide P3 (peptide)
# peptide: FRAREAIDNKVQPLIRR
# notes: peptide covering conserved region 4 of RpoE, E. coli, including R178
# B5: RpoE peptide P1 (peptide)
# peptide: YLVAQGRRPPSSDVD
# notes: peptide corresponding to the C-terminal end of conserved region 2.4 of RpoE, E. coli
# B6: RseA peptide Rse1 (peptide, UniProt P0AFX7 2-29, looked up)
# peptide: QKEQLSALMDGETLDSELLNELAHNPEM
# notes: peptide corresponding to amino acid 2-29 of N-RseA (N-terminal domain of the anti-sigma factor RseA), E. coli
# B7: Hexa-His-tagged FkpB (wild type) (enzyme, E. coli, UniProt P0AEM0 1-149, looked up)
# chain: T2 chain
# notes: FkpB, FKBP-type peptidyl-prolyl cis/trans isomerase, E. coli; minimal coding region of the fkpB gene in pET24b; also called wild-type FkpB; source: E. coli T7 express derivative lacking all six PPIs (SR21984), IPTG-induced; in lysate on Ni-NTA for co-elution; purified (Ni-NTA) for ITC; not shown: His6, C-terminal, kept
# B8: RseA peptide Rse3 (peptide)
# peptide: IIEEEPVRQPATL
# notes: peptide from the conserved regions of the N-terminal domain of RseA, E. coli
# B9: S2-derived peptide (peptide)
# chain: TRYWNPKMKPFIFGA
# modifications: This paper prints neither letters nor limits. Limits 20-34 are recalled from the SlyD/FKBP S2 peptide of the cited work (ref. 12), as are the check residues. Terminal modifications unknown.
# B10: Hexa-His-tagged PpiC (wild type) (enzyme, E. coli, UniProt P0A9L5 1-93, looked up)
# chain: MAKTAAALHILVKEEKLALDLLEQIKNGADFGKLAKKHSICPSGKRGGDLGEFRQGQMVPAFDKVVFSCPVLEPTGPLHTQFGYHIIKVLYRN
# notes: PpiC, parvulin peptidyl-prolyl cis/trans isomerase, E. coli; coding region of the ppiC gene in pET24b; The tag is called cleavable; also called wt PpiC; wild-type PpiC; source: E. coli T7 express derivative lacking all six PPIs (SR21984), IPTG-induced; in lysate on Ni-NTA for co-elution; purified (Ni-NTA) for ITC; not shown: His6, C-terminal, kept
# How the values were obtained:
# [1] = target: T1, Hexa-His-tagged PpiC M57A; test: ITC
# [2] = target: T2, Hexa-His-tagged FkpB (wild type); test: ITC
# [3] = target: T3, Hexa-His-tagged PpiC F81A; test: ITC
# [4] = target: B7; test: ITC; Nano ITC; 200 μM peptide in the cell titrated with 2 mM protein, 25 injections of 2 μL, 20 °C, 20 mM sodium phosphate pH 7.5, 100 mM NaCl; 1:1 binding model; settings: both partners purified
# [5] = target: B10; test: as above; settings: both partners purified
# AhpC-derived peptide = target: B1; test: as above; settings: both partners purified
# RseA peptide Rse3 = target: B8; test: as above; settings: both partners purified
# RseA peptide Rse1 = target: B6; test: as above; settings: both partners purified
binder,measurement,setting,value
B1,Kd,[1],68.8 µM
same,Kd,[2],30.3 µM
same,Kd,[3],77.6 µM
same,Kd,[4],47 µM
same,Kd,[5],30 µM and 47.4 µM
B2,Kd,[4],10.7 µM
B3,Kd,[4],10.3 µM
B4,Kd,[4],19 µM
B5,Kd,[4],38.1 µM
B6,Kd,[4],15.1 µM
B7,stoichiometry N,AhpC-derived peptide,0.99
same,dH,RseA peptide Rse3,-1.48 kcal/mol
same,dH,RseA peptide Rse1,-2.18 kcal/mol
same,stoichiometry N,RseA peptide Rse1,1
B8,Kd,[4],13 µM
B9,Kd,[4],18.8 µM
B10,stoichiometry N,AhpC-derived peptide,0.99
